For test [1], the system named is Akt kinase in human Schwann cells. Briefly: Kinase assay of Akt in vitro (GSK-3α substrate) from Schwann cell lysates. To be noted: CD 500 ng/ml, 2 minutes. The class given is cell-based.
A further test concerns Bcl-2 mRNA in PC12 cells. Briefly: RT-PCR of Bcl-2 gene transcripts in PC12 cells. It is filed as cell-based, rat. On the procedure: Total RNA was extracted from PC12 cells by the acid guanidinum isothiocyanate method (Chomchinski, P., et al., Biotechniques 15: 532-535 (1993)) using TRI-reagent (Molecular Research Center, Inc.). cDNA synthesis was performed according to the instruction of the manufacturer (Gibco-BRL). Reverse transcription reactions were carried out for 50 minutes at 42° C. and were heated to 70° C. for 15 minutes to terminate the reaction using a MiniCycler (MJ Research). Samples were cooled to 4° C. and stored at −20° C. until use.
PCR reactions were performed in 50 μl containing 1.5 μl of template DNA (corresponding to cDNA synthesized from 100 ng of total RNA), 1×PCR buffer, 100 μM of deoxynucleotides, 2.5 mM MgCl2, 10 mM DTT, 10 pM of Bcl-2 primers, and 2 U of Taq DNA polymerase (Gibco-BRL). The synthetic DNA primers for the rat Bcl-2 were: 5′-[…]-3′ (SEQ ID NO:8) and 5′-[…]-3′(SEQ ID NO:9) to give a PCR product of 566 bp. The sequences for synthetic GAPDH DNA primers (Wong, H., et al., Anal. Biochem. 223: 251-258 (1994)) were: 5′-[…]-3′ (SEQ ID NO:10) and 5′-[…]-3′ (SEQ ID NO:11) giving a PCR produce of 306 base pairs. Amplifications were carried out in MiniCycler (MJ Research) using following conditions: 98° C. for 5 minutes (initial heat denaturation), 3 cycles of 94° C. for 1 minute, 63° C. for 1 minute, 72° C. for 1.5 minutes; 3 cycles of 94° C. for 1 minutes, 60° C. for 1 minute, 72° C. for 1.5 minutes, followed by 72° C. for 10 minutes. Primers for GAPDH (10 pM) were added at cycle 7 by the “primer-dropping” method. Aliquots of PCR reaction products were separated by electrophoresis in 2% agarose gels (Ultrapure, Gibco-BRL), containing 0.2 μg/ml ethidium bromide. Gels were analyzed by computerized densitometric scanning using Gel doc 1000 (Bio Rad) and Molecular Analyst Software, version 2.1.

Test [2] relates to primary rat cerebellar granule neurons. Briefly: Survival of primary cerebellar granule neurons in low K+ medium. It is filed as cell-based. To be noted: serum-free BME 5 mM KCl, TS 100 ng/ml, 24 hours, FDA staining. On the procedure: Cultures enriched in granule neurons were obtained from the cerebellum of 8-days-old Wistar rats (Charles River, Wilmington, Mass.) as described by D'Mello et al., J. Neurosci 17:1548-1560 (1997). Cells were plated in basal Eagle medium (BME, Gibco BRL, Gaithersburg, Md.), supplemented with 10% FCS, 25 mM KCl and 2 mM glutamine (Gibso BRL) on dishes coated with poly-L-lysine and laminin. Cytosine arabinofumoside (10 μM) was added to the culture medium 18-22 hrs after plating to prevent replication of non-neuronal cells. Replacement of culture medium with serum-free BME medium was performed 7-10 days after plating. Cells were maintained in serum-free BME with 5 mM KCl for 3 hrs and challenged with different stimuli. Neuronal survival was assayed after 24 hours by staining with 10 μg/ml fluorescein diacetate (FDA, Sigma) (Jones and Senft, 1985) and with DAPI (see above). Chicken dorsal root ganglia neurons were prepared as described (Cox and Dunlap, J. Gen. Physiol 104:311-336 (1994)).

Test [3] deals with human intestinal microvascular endothelial cells (HIMEC). Briefly: IL-6 secretion by HIMEC (ELISA). The class given is cell-based. How it is done:
Primary cultures of human intestinal microvascular endothelial cells (HIMEC) isolated from normal jejunal mucosa/submucosal tissue were prepared as described (Strong et al., Gastroenterology 114: 1244-1256 (1998)). The HIMEC were cultured in fibronectin-coated plasticware in MCDB medium (Sigma) supplemented with 20% FBS, 90 μg/ml heparin and 50 μg/ml endothelial cell growth factor (Sigma). T-24 cells (ATCC Accession No. HTB-4) were cultured in M199 medium supplemented with 10% FBS. PBMC were purified by Ficoll-Paque gradient as described (Current Protocols in Immunology, pp 7.1.1-7.1.2). Vero cells (ATCC Accession No. CCL-81) were grown in RPMI medium with 5% Nu serum and infected with the Silvio X-10/4 of T. cruzi as described previously (Chuenkova et al., J. Exp. Med. 181: 1693-1703, (1995)).
Endothelial cells and T-24 cells were plated on 24-well plates at a density of 1×10^3 cells/well, while peripheral blood mononuclear cells (PBMC) were plated in the similar wells at 1×10^6/well. Triplicat cultures of cells were incubated test agents for a predetermined amount of time. […] Cytokines and chemokines released in the culture supernatants were measured by ELISA assay following the instructions of the manufacturer (Endogen). The cytokines tested were IL-1β, IL-4, IL-8, IL-10, IL-12, IFN-γ, TNF-α, and the chemokines RANTES and MCP-1. Negative controls were cells incubated in medium containing polymixin B at 10 μg/ml, and positive controls were cells incubated with bacterial LPS at the low ng/ml range (for PBMC or HIMEC) or in the μg/ml range for carcinoma T-24 cells. In some experiments, IL-1β, or TNFα were used as positive control for cytokine release.

For a further test, the system named is DS-1 B-lymphoma cells. The test is described as follows: Bioassay for IL-6 with IL-6 dependent DS-1 cells. To be noted: conditioned media of PBMC or T-24 cells (TS 1 μg/ml, 24 hr) diluted into IL-6 free media; or TS 1 μg/ml directly. The class given is cell-based, human. On the procedure:
Bioassay for IL-6 was performed using IL-6 dependent human DS-1 cells (Bock et al., Cytokine 5: 480-489 (1993), ATCC Accession No. CRL-11102). Briefly, 1×10^4 cells/well were plated in 96-well plates and incubated for 24 hrs in IL-6-free medium (10% FCS in RPMI) containing several dilutions of TS-conditioned media or exogenous rIL-6. The cultures were pulsed with 0.5 μCi ^3H-thymidine for 4 hrs and harvested to determine radioactivity incorporation using a microplate scintillation instrument (Packard). In some studies, a neutralizing anti-IL-6 rabbit IgG or normal rabbit IgG (Endogen) was added to the dilutions of TS-conditioned prior to assaying for growth-stimulation of DS-1 cells. TS conditioned media was prepared by incubating PBMC or T-24 cells for 24 hr in 10% FCS/RPMI without (CM) or with (TS/CM) TS at 1 μg/ml. Supernatants were centrifuged at 1,000×g to remove cell debris and were kept frozen at −20° C. until use.

Test [4] deals with mouse splenocytes, bone marrow cells, and peritoneal cells. Briefly: IL-6 secretion by naive mouse cells. The class given is cell-based. To be noted: peritoneal cells from BALB/c and other strains of mice.

Entries after “also recorded” stand apart in the source; their conditions may differ.

B1: TS-F: recombinant full catalytic domain of TS, amino acid residues 33-666, His-tagged, expressed in E. coli (protein, listed as Trypanosoma cruzi)
chain: ETQIAIKNSRVSSVSRVVDPTVIVKGNKLYVLVGSYYSSRSYWSSHGDARDWDILLAVGEVTKSTAGGKITASIKWGSPVSLKKFFPAEMEGMHTNQFLGGAGVAIVASNGNLVYPVQVTNKRKQVFSKIFYSEDDGKTWKFGKGRSDFGCSEPVALEWEGKLIINTRVDWKRRLVYESSDMEKPWVEAVGTVSRVWGPSPKSNQPGSQTSFTAVTIEGMRVMLFTHPLNFKGRCVRDRLNLWLTDNQRIYNVGQVSIGDENSAYSSVLYKDDKLYCLHEINTDEVYSLVFARLVGELRIIKSVLRSWKNWTATCPAFAPLLIQPLRRQRVVVVPLSPRLVLLAFCRQRLPKRMGGSYRCVNASTANAERVRNGLKFAGVGGGALWPVSQQGQNQRYRFANHAFTLVASVTIHEAPRAASPLLGASLDSSGGKKLLGLSYDEKHQWQPIYGSTPVTPTGSWETGKRYHLVLTMANKIGSVYIDGELLEGSGQTVVPDGRTPDISHFYVGGYKRSDMPTISHVTVNNVLLYNRRQLNTEEIRTLFLSQDLIGTEAHMDSSSDSSAHSTPSTPADSSAHSTPSTPVDSSAHSTPSTPADSSAHGTPSTPVDSSAHGTPSTPADSSAHGTPSTPVDS
modifications: His tag
notes: recombinant full catalytic domain of TS, amino acid residues 33-666, His-tagged, expressed in E. coli
Consider B1, for which, in test [1], the “Akt kinase activity in control GFP-transfected Schwann cells” value was “stimulation of Akt activity”. Moreover, in test [1] (listed as CD), the “Akt kinase activity in Schwann cells over expressing AktKI” value is “inability of CD to enhance endogenous Akt enzymatic activity; also recorded: did not activate Akt kinase”.

B2: TS: T. cruzi trans-sialidase purified by immuno-affinity chromatography from supernatants of infected Vero cells (SEQ ID NO:2, SEQ ID NO:34) (protein, listed as Trypanosoma cruzi)
chain: MVAIADARYETSSENSLIDTVAKYSVDDGETWETQIAIKNSRVSSVSRVVDPTVIVKGNKLYVLVGSYYSSRSYWSSHGDARDWDILLAVGEVTKSTAGGKITASIKWGSPVSLKKFFPAEMEGMHTNQFLGGAGVAIVASNGNLVYPVQVTNKRKQVFSKIFYSEDDGKTWKFGKGRSDFGCSEPVALEWEGKLIINTRVDWKRRLVYESSDMEKPWVEAVGTVSRVWGPSPKSNQPGSQTSFTAVTIEGMRVMLFTHPLNFKGRCVRDRLNLWLTDNQRIYNVGQVSIGDENSAYSSVLYKDDKLYCLHEINTDEVYSLVFARLVGELRIIKSVLRSWKNWTATCPAFAPLLIQPLRRQRVVVVPLSPRLVLLAFCRQRLPKRMGGSYRCVNASTANAERVRNGLKFAGVGGGALWPVSQQGQNQRYRFANHAFTLVASVTIHEAPRAASPLLGASLDSSGGKKLLGLSYDEKHQWQPIYGSTPVTPTGSWETGKRYHLVLTMANKIGSVYIDGELLEGSGQTVVPDGRTPDISHFYVGGYKRSDMPTISHVTVNNVLLYNRRQLNTEEIRTLFLSQDLIGTEAHMDSSSDSSAHSTPSTPADSSAHSTPSTPVDSSAHSTPSTPADSSAHGTPSTPVDSSAHGTPSTPADSSAHGTPSTPVDSSAHSTPSTPVDSSAHSTPSTPVDSSAHGAPSTPADSSAHGTPSTPVDSSAHGTPSTPADSSAHSTPSTPADSSAHSTPSTPADSSAHSTPSTPVDSSAHGTPSTPADSSAHSTPSTPADSSAHGTPSTPVDSSAHSTPSTPVDSSAHGTPSTPVDSSAHSTPSTPVDSSAHGTPSTPVDSSAHSTPSTPADSSAHSTPSTPADSSAHGTPSTPVDSSAHSTPSTPADSSAHSTPSTPVDSSAHSTPSTPADSSAHGTPSTPVDSSAHGTPSTPADSSAHSTPSTPADSSAHSTPSTPADSSAHSTPSTPVDSSAHSTPSTPADSSAHSTPSTPADSSAHSTPSTPADSSAHSTPSTPVDSSAHSTPSTPADSSAHGTPSTPADSSAHSTPSTPVDSSAHSTPSTPADSSAHGTPSTPADSSAHSTPSTPADSSAHGTPSTPADSSAHSTPSTPAGSSANGTVLILPDGAALSTFSGGGLLLCACALLLHVFFMAVF
B2: the “bcl-2 gene expression in PC12 cells” value with Bcl-2 mRNA in PC12 cells (TS 2.5 ng/ml, CNTF 50 ng/ml, alone or combined, 17 hours) is “did not induce bcl-2 gene expression individually”. The “expression of Bcl-2 mRNA in PC12 cells” value in the test on Bcl-2 mRNA in PC12 cells (TS 100 and 200 ng/ml, 17 hours serum-free) was “dramatically increased Bcl-2 mRNA; also recorded: induces the expression of Bcl-2 mRNA”. Moreover, the “protection of primary cerebellar granule neurons from death in low K+ medium” value in test [2] is on record as “effectively protected the neurons from death; also recorded: increased number of viable cells”. For the same molecule, in test [3] (24 hrs culture), the “IL-6 secretion by HIMEC” value was “potently and specifically induced IL-6 secretion; also recorded: elevated in the conditioned supernatants in a manner dependent on the TS input”. For the same molecule, in test [3] (TS 1 μg/ml), the “bacterial LPS concentration inducing the same quantity of IL-6 in HIMEC” value was determined as 50 ng/mL and the “stimulation time for maximum IL-6 secretion in HIMEC” value amounted to 24 h. Further, the “proliferation/growth of IL-6-dependent DS-1 cells” value in the test with DS-1 B-lymphoma cells is given as “did not restore growth of the DS-1 cells; also recorded: did not induce proliferation”. In addition, the “IL-6 secretion by naive mouse cells” value in test [4] is “potently and specifically induced IL-6 secretion; also recorded: upregulator of IL-6 secretion”.

Values taken from patent US8114412B2, “T. cruzi-derived neurotrophic agents and methods of use therefor” (priority 1999, dated 2012).
